Experimental data from patent publication US11358997.

Target: mouse leptin receptor on Ba/F3-mLR cells (mouse) (UniProt P48356)
Assay: cell-based or functional assay

Chain of UniProt P48356 (P48356 22-1162): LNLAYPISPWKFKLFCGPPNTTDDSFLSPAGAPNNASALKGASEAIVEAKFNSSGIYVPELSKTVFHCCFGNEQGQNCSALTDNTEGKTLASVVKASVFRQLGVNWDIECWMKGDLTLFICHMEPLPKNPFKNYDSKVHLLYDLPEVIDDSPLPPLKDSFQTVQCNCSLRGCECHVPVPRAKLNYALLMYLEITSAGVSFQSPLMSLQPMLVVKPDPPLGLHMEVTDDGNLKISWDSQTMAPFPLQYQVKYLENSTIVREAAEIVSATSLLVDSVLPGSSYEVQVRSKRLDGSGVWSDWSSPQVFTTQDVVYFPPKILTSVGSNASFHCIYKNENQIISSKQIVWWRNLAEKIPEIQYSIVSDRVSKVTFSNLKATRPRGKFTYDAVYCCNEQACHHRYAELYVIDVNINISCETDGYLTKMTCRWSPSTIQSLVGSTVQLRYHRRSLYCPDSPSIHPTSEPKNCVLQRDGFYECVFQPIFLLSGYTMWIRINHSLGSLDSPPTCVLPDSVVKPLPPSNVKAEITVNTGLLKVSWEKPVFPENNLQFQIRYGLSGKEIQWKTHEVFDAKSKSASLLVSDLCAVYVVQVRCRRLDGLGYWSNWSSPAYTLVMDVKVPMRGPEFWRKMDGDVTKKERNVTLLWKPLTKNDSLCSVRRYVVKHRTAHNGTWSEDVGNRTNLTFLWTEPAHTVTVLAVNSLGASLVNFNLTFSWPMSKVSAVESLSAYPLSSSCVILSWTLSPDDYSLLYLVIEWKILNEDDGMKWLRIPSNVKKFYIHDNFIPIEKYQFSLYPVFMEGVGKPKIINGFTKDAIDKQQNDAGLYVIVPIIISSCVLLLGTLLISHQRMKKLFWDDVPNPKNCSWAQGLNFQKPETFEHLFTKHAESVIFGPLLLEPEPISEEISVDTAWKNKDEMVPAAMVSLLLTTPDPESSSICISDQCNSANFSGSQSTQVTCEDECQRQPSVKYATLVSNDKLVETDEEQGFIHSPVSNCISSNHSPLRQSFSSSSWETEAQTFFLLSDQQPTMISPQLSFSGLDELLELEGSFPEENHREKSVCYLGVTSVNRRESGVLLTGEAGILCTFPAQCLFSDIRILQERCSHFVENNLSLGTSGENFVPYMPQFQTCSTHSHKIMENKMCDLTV

induction of proliferation of Ba/F3-mLR cells (XTT assay, 4 days) (times less potent)	Substance
10	scTNF WT-6xGGS-mLeptin L86N-FLAG (from UniProt P01375 77-233; P01375 80-233; P01375 80-233; P41160 22-167)
3	scTNF WT-6xGGS-mLeptin L86S-FLAG (from UniProt P01375 77-233; P01375 80-233; P01375 80-233; P41160 22-167)
